Assay results: patent US6720475, “Nucleic acid sequence encoding FLP recombinase” (Pioneer Hi-Bred International, Inc.)

How the values were obtained:
[1] = target: T1, moFLP (FLP recombinase from maize-codon-optimized gene) (Saccharomyces cerevisiae, UniProt P03870 SEQ:1-423); assay: cell_activity; ED50 for excision between genomic FRT sites in BMS cells, PHP5096 plasmid dose; conditions: chain copies: 4
T1 chain: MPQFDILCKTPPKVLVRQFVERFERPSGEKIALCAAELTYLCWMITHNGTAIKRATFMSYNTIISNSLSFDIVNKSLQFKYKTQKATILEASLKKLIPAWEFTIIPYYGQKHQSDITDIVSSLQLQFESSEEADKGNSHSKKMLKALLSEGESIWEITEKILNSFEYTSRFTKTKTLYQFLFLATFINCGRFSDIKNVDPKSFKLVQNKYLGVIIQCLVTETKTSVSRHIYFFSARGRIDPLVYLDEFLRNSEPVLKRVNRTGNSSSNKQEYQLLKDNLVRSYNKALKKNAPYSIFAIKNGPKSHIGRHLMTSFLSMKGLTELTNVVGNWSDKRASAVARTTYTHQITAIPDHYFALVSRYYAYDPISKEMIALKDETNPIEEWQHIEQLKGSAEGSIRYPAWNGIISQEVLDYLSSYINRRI
Description: (§1) The moFLP gene produces higher levels of site-specific excision in maize cells than FLPy. The FRT-containing BMS transformants produced in Example IIA were transfected with varied doses of FLP-expressing vectors for site specific excision of genomic transgenic sequences using the methods described above for Example II-C. Plasmids expressing FLP, PHP5095 (FLPy), and PHP5096 (moFLP) are described above for Example I-A (see Table I-A-1). The FRT/moFLP-containing PHP5849 is described above for Example I-F (see Table I-F-1). Control plasmids used were PHP3703 (non-FLP negative control; with UBI promoter and intron, wheat germ agglutinin structural gene, and pinII 3' end), PHP3953 (positive control; with UBI promoter and intron, GUS structural gene, and pinII 3' end), and pUC18 (with no plant expression cassette used as carrier DNA to keep the total DNA load constant). Cell culture methods, DNA bombardment methods, and assay methods were those described above for Example I. The experimental design is shown below in Table II-D-1.
(§2) GUS activity indicating FLP-mediated excision of genomic DNA in cells transfected with FLYy or moFLP is shown below in Tables II-D-2 and II-D-3. The $ED50$ for each FLP expression plasmid shown in Table II-D-3 was manually determined from graphing the data.

[2] = target: T2, FLPy (FLP recombinase from native yeast gene) (Saccharomyces cerevisiae, UniProt P03870 SEQ:1-423); assay: cell_activity; ED50 for excision between genomic FRT sites in BMS cells, PHP5095 plasmid dose; conditions: tags: expressed in maize cells; chain copies: 4
T2 sequence: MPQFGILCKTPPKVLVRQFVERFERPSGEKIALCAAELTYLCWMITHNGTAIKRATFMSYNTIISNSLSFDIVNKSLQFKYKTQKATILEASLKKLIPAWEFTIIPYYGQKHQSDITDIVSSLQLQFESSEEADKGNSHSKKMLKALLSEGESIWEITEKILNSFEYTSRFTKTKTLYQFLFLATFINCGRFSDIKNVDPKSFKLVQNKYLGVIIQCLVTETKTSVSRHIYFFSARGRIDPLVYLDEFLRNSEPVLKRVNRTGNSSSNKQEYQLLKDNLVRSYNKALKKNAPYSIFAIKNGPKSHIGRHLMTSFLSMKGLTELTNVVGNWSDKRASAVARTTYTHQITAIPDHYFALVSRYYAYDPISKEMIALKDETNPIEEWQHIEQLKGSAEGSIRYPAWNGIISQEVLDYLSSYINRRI
Description: as §1, §2

B1: FRT site (FRT-1) (dsDNA)
DNA 1: GAAGTTCCTATTCTCTAGAAAGTATAGGAACTTC
DNA 2: GAAGTTCCTATACTTTCTAGAGAATAGGAACTTC
Which results are given for B1?
EC50 [1]: 0.03 ug FLP expression vector; EC50 [2]: 0.13 ug FLP expression vector
